Measurements as given in the DeepSol protein solubility set.

Test: soluble on expression in E. coli; label from the status in PepcDB or PDB records

Sequence	soluble on expression in E. coli
MGSDKIHHHHHHMTEQNQKQLGNTLWSIADQLRGAMDADDFRDYMLSFLFLRYLSDNYETAAKKELGRDYPDVGGDARKVPLALWYANNVDDIPAFEKQMRRKVHYVIQPAHLWNSIANLARTQNPDLLDTLQAGFKYIETESFESTFQGLFSEIDLSSPKLGKSYSDRNAKLCTIIQKIAEGLAAFSTNIDALGDAYEYLIGQFAAGSGKKAGEFYTPQQISDILSAIVTLDSQEPKTGTKKRLDSVLDFACGSGSLLLNVRKKVNQAGGSIGKIYGQEKNITTYNLARMNMLLHGVKDTEFEIFHGDTLLNEWDMLREQNPARKPSFDAVVANPPFSYRWEPTDALADDVRFKSHGLAPKSAADFAFLLHGFHYLKDEGVMAIILPHGVLFRGGAEERIRTKLLKDGHIDTVIGLPANLFYSTGIPVCILVLKKCKKPDDVLFINAAEHFVKGKRQNHLSDEHIAKIIETYQFRTEEPRYARRVDMAEIEKNDFNLNISRYISTAVDEEEIDLTATHANLVNIEKAIQQATAKHNEFLKELGMPLLP	not soluble
MGSDKIHHHHHHMTFKNDVDGCSYPGILSASRSTDIPAFYAEWFSRRLRDGYVVWKSPFNQKCYSVCFEKAGGIVFWTKNPKPLMPFLDEVSELGYDYYFQFTVNDYESEGFEPNVPPLDERIETFRSLSQKLGKERVIWRFDPICLTRELDVEGIMARLRSIGECLKGYTEQLVISFVDVHAYTKVQRNIKTADGFCLREPSMEEQDELARRISSYAKEIGVSPSACGERRSFAHFGILPNKCIDGELFKRICRKGNIKLQKHLGTYIDQYSLLSPQKKDVTLCKDKGQRKECGCVESKDIGMYNTCNHMCVYCYANTSQRVVEKNRVLHDVNGESLIPTSRTVEE	not soluble
MGSDKIHHHHHHMTHLKIFLLLIVCALSVLDGKAQTGIALTDELNGKRIGVIGDSYVRNHKEPFENTWHYKFAKKHGMEYFNYGKNGNSIAYSSPRWGKAMYLRYAEMADSLDYVIVIGGHNDAFKLDSIGGIDNFKDKMEILCKGLVEKYPTAKIFFFTRWNCKNFKGSDSEKVVDAMIEVCGNYSIPIFDCARKGSIYADNDTFRRIYFQKSKNNTDTAHLNSKGHDRFLKVAESFLLQY	not soluble
MGSDKIHHHHHHMTINFRRNALQLSVAALFSSAFMANAADVPQVKVTVTDKQCEPMTITVNAGKTQFIIQNHSQKALEWEILKGVMVVEERENIAPGFSQKMTANLQPGEYDMTCGLLTNPKGKLIVKGEATADAAQSDALLSLGGAITAYKAYVMAETTQLVTDTKAFTDAIKAGDIEKAKALYAPTRQHYERIEPIAELFSDLDGSIDAREDDYEQKAADPKFTGFHRLEKALFGDNTTKGMDQYAEQLYTDVVDLQKRISELAFPPSKVVGGAAGLIEEVAASKISGEEDRYSHTDLWDFQANVEGSQKIVDLLRPQLQKANPELLAKVDANFKKVDTILAKYRTKDGFETYDKLTDADRNALKGPITALAEDLAQLRGVLGLD	not soluble
MGSDKIHHHHHHMTIYYNEMVDGGLVREPYAMLSDWIETMPAEIRQMKQAEAEALFRRIGITFAVYGEGGDPDRLIPFDMMPRVFLQGEWRRLERGIKQRARGLNAFLRDVYGRGEIVRAGRIPAPLVYRNAAYEKAVVGFVPPRGVFSHIVGIDIVRTGRDEFHVLEDNCRTPSGVSYMLENREIMMRMFPALFRNNRIEPVDQYPELLRRTLASVAPAKCEGEPTVVILTPGHYNSAYYEHSFLANLMGVELVEGSDLFVDGGFVYMRTTQGPKRVDVIYRRIDDQFLDPLCFRRDSMLGVPGLMDVWRSGGVSIASAPGAGVADDKAVYTFVPEMIRFYLGEEPILNNVQTWTLWKDDDYRYVMANLKDLVVKEVHGSGGYGMLIGPRATKAEIEAFAERIKADPGNYIAQPTLALSTSPTFVDEGVAPRHVDLRPFCLCGDRIELVPGGLTRVALREGSLVVNSSQGGGVKDTWVLSE	not soluble
MGSDKIHHHHHHMTKDMQTFTLVPQGSLEGYIRAANAYPMLTAEEERALAERLHYQGDLEAAKHLILSHLRFVIHVARNYSGYGLPQADLIQEGNIGLMKAVRRFNPEVGVRLVSFAVHWIKAEIHEYVLRNWRIVKVATTKAQRKLFFNLRKAKTRLGWFNQDEVELVARELGVTTKDVREMESRMAAQDMTFDPTPEEDSHDGKAMSPMLYLQDKSSDFADGIEEDNWDTHAADKLTYALEGLDERSQHIIRARWLDDDNKSTLQELADQYGVSAERVRQLEKNAMKKLRAAIEA	not soluble
MGSDKIHHHHHHMTKTKNEKEEFIRVGTTLYKLVNQPRLNGGYVRKRIVWNNETLRQDYGKDYLATVPKYDGFCTVPNHVDYRPVVDKFLNLYEPIEHCPQQGEFPCIQSLVRHIFGEQYELGMDYLQLLYLQPVQKLPILLLVSEERNTGKSTFLNFLKALFQNNVTFNTNEDFRSQFNSDWAGKLLIVVDEVLLNRREDSERLKNLSTTLSYKVEAKGKDRDEIAFFAKFVLCSNNEYLPVIIDAGETRYWVRKIDRLQSDDTDFLQKLKAEIPAFLHFLQHRQLSTEKESRMWFAPSLLHTEALRKIIRSNRNRLEIEIHELILDIMDSVGTDTFSFCYNDLLLLLVHSQVKVEKYQVRKVLQECWKLTPASNGLTYTTYQFNYNRECRYEPIKRVGRFYTVTRKQLDSL	not soluble
MGSDKIHHHHHHMTLSITSNFDAGAIDVVSCERADAIRLRVRGDNRSEFAQWFYFRLTGARGERCVMTFENANDCAYPAGWRDYRAVASYDRVNWFRVPTSYDGQMLTIDHTPEFDSIHYAYFEPYSEERHSEFLGAVQQMPQASVVELGRTVEGRPMSLVVLGTPDEAGAAKKKVWIIARQHPGESMAEWFIEGLVKRLVGWGDWSGDPVARKLYDHATFYIVPNMNPDGSVHGNLRTNAAGANLNREWMEPDAERSPEVLVVRDAIHAIGCDLFFDIHGDEDLPYVFAAGSEMLPGFTEQQRVEQSAFIDSFKRASPDFQDEHGYPPGKYREDAFKLASKYIGHRFGCLSLTLEMPFKDNANLPDEHIGWNGARSASLGAAMLGAILEHVRAFA	not soluble
MGSDKIHHHHHHMTMPYVKNTKEILEKASKERYAIGAFNFNNMEFLQAILEAAEEEKAPVIVATSEGAIKYIGKGDIETGAKLAVEMVRTYAEKLSVPVALHLDHGRDFKVIMAAIKAGYSSVMIDASHLPFEENLRETKRIVEIAHAVGISVEAELGKLKGIEDNVVEKESVLVDPEEAKVFVKETEVDFLAPAIGTSHGAFKFKGEAQLDFERLKKVKEYTQIPLVLHGASMVPQDIVKLANEYGAELSGAKGVPEDMLKKAIELGINKINTDTDLRITFVAYLRKVLSEDKSQIDPRKIFKPVFEQVKEIVKERIRIFGSSGKA	not soluble
MGSDKIHHHHHHMTMTKKDALLLAAKELFGEYGYSETTFKKISERAGVALGLLTHHYGNKEKLFLAAGLDVLDRFIVYLQDACAKGNNGYESVMNFCRAYLDFSIDKNEHFMVLVRCSPYSDMKTKTDRDIMYEKFNQVPRELEYHVRRGIEDGSLKSLPAYETTTVLTCNLVGSIRTKLLTPYAPPSLYDDVLEFISRSIKA	not soluble
MGSDKIHHHHHHMTNKVVNNDKISSVGIIGCGWLGSALAYQLKNQDIAVLATRSNIDNIEQLKSQGIEAEVLSLPAEQAQLNTHPIFKQQCLVIAITPQFRQGRVDYADKVQQLVESAKVGNCVEQIILLSSSAIYNGLSGDVEENSILDMSADKVSVLNQAEQAVLSFNHPGRNESRLNALNAEVGNKKAYVLRLSGLVGPKRHPGKFLLNGHMLKSPQAIVNLIHQQDAVGLIQTLLQSANCGGIFNGVSSTKVTKKQYYQAAASALQLPTPTFEEIELSEDNAPKVVSGKKTQAELAYEFVYDDLLAWLELAV	not soluble
MGSDKIHHHHHHMTQNTTLRIGSGSGWWGDRVEPAERSARLGKLDYLCFETMAEATVSAAQVRKRRDPAFGGYDTYLDDRMRAVLPHCIAHGTRIISNQGWIHPLGAARRVAELCKELGLPDVKIAAVTTTDLTSSICELDLTLLESGEHVSTLRETLISAEPYEGVGPIVEALRAGAQIVVTGRVADPSLFLAPMIHHFGWQADDVARLARGSAIGHLLECGAQVTGGYFGDPGYKDVPEPWNLAFPIAEVEADGSAVISKVAGSGGRIDLQTVKEQMFYEVHDPRRYITPDVIVDFSTAVLEQVAPDRVRISGVSGLPRTDTLKVSLGCTEGHIGEDMFFYAGPGCLEKAKLAKRILEERFAMAALRADELRIDFLGVNAVHGAASPEPACEPNEIAVRVAARTRTREEAAKVGREIDSMAVCGLASTGKRVPHQDRTREIIGVWSALVPRALIRSQVQFV	not soluble
MGSDKIHHHHHHMTQPTLPPPPRTRFTVSDFNRMGGSVGFNYRLPGQEGGGTGIENLCIAEGRVEECEIRPGITLIVSDVHVYHHYESTSVMTPRFSAIVMLQGQARARLDKQDDVRLAAQSGLNALYGDTVAMTGVHPAGQRLRSVNLSVTAPEAADDEYTSEIIWKLMQSSAPRLRRWPVPHHLLLSIEHLLECDWDQPLRNMVREGVGTQLLAHALAALQHAPVTHRGLTQRDRQLLERVRERLHEAPGEDHTLDDLARLACMSPSTLRAKFHAVYHRSVFSWLRERRLEVAREQLARGWSVQQAAHFVGYRHATNFATAFRERYGVAPSQLG	not soluble
MGSDKIHHHHHHMTRKRAKTHSVKKAPLFVLTSSPNPKRTTSNKSAGIWSYWTRRTAYAMSTHIIPRLQKVIDGEDQGGISKAVNWQGGGGFRYFRLAPTLIVNDKWGNQIINPDYNPEMLAEALAKLEGLPDFSWILELGSGFAFVGRQYRLEVNGDEFFIDLLFYHIRLKCYVVVELKAAAFKPEHAGQLNFYLAAVDAQVKAPDDNPTIGLLLCKTQNRLVAEYALSDIDKPIGIAEYELVRALPEPLVTNLPTVEQLESELSDWQEDGEFFGV	not soluble
MGSDKIHHHHHHMTRPPDLLADVLDGIDALLVFSPSGSYYDRVDDVEGVDVVVVATENAVGAETFVELPLAFDDVREQIRFGIEGALSEGVVADGDELGCVAPFLSEEVDMVTRTRANAGTQSSVYELFASTRAEPGVIRDVFDVAIELGRKGQKGKPVGALFVVGDAGKVMTKSRPLSYNPFEKSHVHVGDPIVNVMLKEFSRLDGAFVISDSGKIVSSYRYLEPGAEGTDIPKGLGARHMAAGAITRDTNAVAIVLSESDGLVRAFRNGELVLELDPEDN	not soluble
MGSDKIHHHHHHMTRQCHPLATVVDACAPLRFAPLPDLRLRSFTRSGDQGDAGQWCRADLLAAKNAFAPVYDGFVAATRPGHRLPAATHFLRAVFREPIFLVAAGLYLTGRAPLLDASHLWFPVRADRTLGTPMLTELKVAVTADDRFAGHPETVTFPGSDDVVRAAAHAMVAAFTPVIDALSAHTRVGKRTLWGWVLDTAHFYMLNPARFLGRDAQAAWALANRLADALLEAGAVTRARPRLFPFCDNHPRGTWAVRGTCCFDYKGDPEHGYCTTCPHKCDNERRNELQEWLRNPALAP	not soluble
MGSDKIHHHHHHMTRRAWTLLDGGMGRELKRIGAPFRQPEWSALALFEAPEYVTQVHRAFIAAGARVITTNSYAVVPFHIGEERFARSGRALAELSGRLARGAADEAGASVQVAGSLPPALGSYRPDLFDPARSQAIHRELICGLTPHVDFWLAETQSSLAEARAVHAALDGDGKPLWLSFTLLDPDTEHAVPLLRSGESVQQAVLLALELGASALLFNCSQPESMGAALRSARQVLKQEARELALGVYANAFPPVREDAQANDTLLDIRADLGPEAYLQWAQQWVEEGADIVGGCCGIGPEHIARLDEHLQACKQGME	not soluble
MGSDKIHHHHHHMTSDDLLPYGYIDAHHHVWAPDSHGDAIGYGWLRDIGAMKPFGDPTPIQRDYLMAEFLSEAPDAPRASVHVQTDGTLPDPVAETRFVQAQADATDHPVKIVGLADLGAEDLTGTLDRHAESRDFCGVRQIAARLDHRPDLTFAPQDYLADEQWVNGLKILEDRGLTFDLQIYPEQAEAALEALSATPALTVIIDHALCPYDPAKITQWQAAVALMAARDNTFIKLSGWGMYDAEWDLNGGVSVQPLVSHILERFGADRVMWGSNFPVEKLATRYETCRDVHLDMVPEDAHQDVFFNSAAKTYGLTLT	not soluble
